Literature values, collected in PMC7609432.
Where two headings read alike, the source gives them in different places.

Key:
IQGAP1 (Danio rerio) [1] = experiment: SW-FCCS
IQGAP1 (Danio rerio) [2] = experiment: SW-FCCS; remark: listed apart in the source

Chain of IQGAP1 (Danio rerio) (P46940 2-1657): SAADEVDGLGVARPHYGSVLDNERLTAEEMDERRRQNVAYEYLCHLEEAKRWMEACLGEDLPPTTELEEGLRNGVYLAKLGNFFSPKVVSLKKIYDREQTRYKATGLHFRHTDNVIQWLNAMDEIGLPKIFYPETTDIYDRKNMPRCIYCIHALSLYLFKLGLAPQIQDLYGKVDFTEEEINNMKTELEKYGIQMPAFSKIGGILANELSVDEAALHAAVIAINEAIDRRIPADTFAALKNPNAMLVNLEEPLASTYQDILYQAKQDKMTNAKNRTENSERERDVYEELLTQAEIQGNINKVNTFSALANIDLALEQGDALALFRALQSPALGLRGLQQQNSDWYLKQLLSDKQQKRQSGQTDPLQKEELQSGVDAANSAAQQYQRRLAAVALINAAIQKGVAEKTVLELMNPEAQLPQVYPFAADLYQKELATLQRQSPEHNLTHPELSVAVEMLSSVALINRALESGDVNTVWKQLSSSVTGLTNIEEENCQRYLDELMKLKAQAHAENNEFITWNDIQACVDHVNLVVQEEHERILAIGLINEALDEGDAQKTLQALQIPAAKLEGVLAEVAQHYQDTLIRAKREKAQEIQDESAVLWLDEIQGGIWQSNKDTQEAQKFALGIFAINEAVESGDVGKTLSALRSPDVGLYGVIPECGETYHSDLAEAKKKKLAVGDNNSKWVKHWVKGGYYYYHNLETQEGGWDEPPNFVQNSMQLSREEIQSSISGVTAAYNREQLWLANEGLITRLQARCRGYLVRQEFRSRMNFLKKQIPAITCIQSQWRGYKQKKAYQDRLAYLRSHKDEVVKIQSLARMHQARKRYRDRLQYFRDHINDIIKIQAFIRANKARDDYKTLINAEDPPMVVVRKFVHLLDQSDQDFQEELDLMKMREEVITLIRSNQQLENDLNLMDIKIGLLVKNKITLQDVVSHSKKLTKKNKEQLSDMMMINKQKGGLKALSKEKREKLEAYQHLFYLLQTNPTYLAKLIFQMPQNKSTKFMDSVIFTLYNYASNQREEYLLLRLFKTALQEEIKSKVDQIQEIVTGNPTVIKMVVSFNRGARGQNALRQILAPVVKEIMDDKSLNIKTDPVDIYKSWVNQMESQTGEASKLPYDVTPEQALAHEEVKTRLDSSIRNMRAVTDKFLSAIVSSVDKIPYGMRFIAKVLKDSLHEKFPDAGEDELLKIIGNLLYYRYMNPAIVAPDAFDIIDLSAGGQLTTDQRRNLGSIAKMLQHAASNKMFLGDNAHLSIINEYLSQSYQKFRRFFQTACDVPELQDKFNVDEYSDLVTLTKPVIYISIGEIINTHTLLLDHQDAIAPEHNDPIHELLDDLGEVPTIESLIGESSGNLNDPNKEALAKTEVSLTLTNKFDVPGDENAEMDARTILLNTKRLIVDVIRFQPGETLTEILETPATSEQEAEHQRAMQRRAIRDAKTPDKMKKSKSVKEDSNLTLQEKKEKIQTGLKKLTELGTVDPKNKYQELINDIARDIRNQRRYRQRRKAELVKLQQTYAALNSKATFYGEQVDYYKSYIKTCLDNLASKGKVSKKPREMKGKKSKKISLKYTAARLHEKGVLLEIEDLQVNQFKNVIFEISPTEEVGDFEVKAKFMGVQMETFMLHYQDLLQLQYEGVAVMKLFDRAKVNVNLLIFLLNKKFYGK

Cdc42 (from UniProt P60953)
Kd (IQGAP1 (Danio rerio) [1]): > 1500 nM | Kd (IQGAP1 (Danio rerio) [2]): 105 nM
